Publication PMC4611711

Biological target: truncated Bid (tBid) of cleaved Bid (cBid) 190C labeled with Alexa Fluor 488 (murine) (UniProt P70444)

p7 fragment of Bid (from cleaved Bid 190C) (domain or fragment)
Kd: 0.04 µM
